In paper PMC4608358:
Several values for one entry are separate records, joined by “and”; a condition that tells them apart may be missing. Equal entries are not always repeated.

Key:
[1] = target: wildtype hamster BiP, N-terminally hexahistidine-tagged (hamster) (UniProt G3I8R9); assay: native gel or EMSA; purified BiP diluted to a series of concentrations, equilibrated 48 hr at room temperature, native-PAGE immunoblot; share of species II and III against concentration; crude estimate
[2] = target: wildtype hamster BiP, N-terminally hexahistidine-tagged (hamster) (UniProt G3I8R9); assay: SEC-MALS; wildtype BiP 90 µM, Superdex 200 Increase 10/300 in HKM, room temperature

Chain of wildtype hamster BiP, N-terminally hexahistidine-tagged, G3I8R9 19-654 (natural protein; other documents disagree on this pair) (G3I8R9 19-654): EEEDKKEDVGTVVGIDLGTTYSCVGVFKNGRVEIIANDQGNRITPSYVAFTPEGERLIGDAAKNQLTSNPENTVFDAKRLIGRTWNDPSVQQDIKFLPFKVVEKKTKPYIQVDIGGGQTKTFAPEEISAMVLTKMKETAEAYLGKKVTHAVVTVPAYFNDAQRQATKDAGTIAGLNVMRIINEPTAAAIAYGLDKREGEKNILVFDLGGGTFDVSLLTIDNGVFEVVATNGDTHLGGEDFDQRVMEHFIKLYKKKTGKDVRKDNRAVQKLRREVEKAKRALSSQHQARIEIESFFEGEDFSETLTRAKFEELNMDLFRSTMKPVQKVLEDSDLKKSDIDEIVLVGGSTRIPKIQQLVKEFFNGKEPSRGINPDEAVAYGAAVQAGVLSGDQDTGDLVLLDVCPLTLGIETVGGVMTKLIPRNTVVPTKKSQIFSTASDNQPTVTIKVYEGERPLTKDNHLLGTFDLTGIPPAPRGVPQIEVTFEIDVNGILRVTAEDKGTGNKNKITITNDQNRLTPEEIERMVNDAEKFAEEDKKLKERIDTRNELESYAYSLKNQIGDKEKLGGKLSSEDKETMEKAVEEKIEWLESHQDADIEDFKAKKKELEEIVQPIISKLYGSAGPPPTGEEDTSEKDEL

K (1/2max)^II (concentration of BiP at which half of species II dissociated) [1]: 0.45 µM
K (1/2max)^III (concentration of BiP at which half of species III dissociated) [1]: 0.74 µM
stoichiometry N [2]: 2 and 3
Substance: wildtype hamster BiP, N-terminally hexahistidine-tagged, G3I8R9 19-654 (natural protein; other documents disagree on this pair)
